According to PMC6224509 (2018):

Key:
Assay in all cases: SPR; 37°C
[1] = molecular target: human 4-1BB residues 24–186 M101R, His–Avi (human, UniProt Q07011 24-186, M101R)
[2] = molecular target: human 4-1BB residues 24–186 I132R, His–Avi (human, UniProt Q07011 24-186, I132R)
[3] = molecular target: human 4-1BB residues 24–186, wild type, His–Avi (human, UniProt Q07011 24-186)
human 4-1BB residues 24–186, wild type, His–Avi, sequence (Q07011 24-186): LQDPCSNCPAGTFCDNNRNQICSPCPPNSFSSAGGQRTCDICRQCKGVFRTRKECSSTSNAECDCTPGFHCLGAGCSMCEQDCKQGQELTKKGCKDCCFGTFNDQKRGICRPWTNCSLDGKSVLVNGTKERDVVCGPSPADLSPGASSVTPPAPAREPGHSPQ

human 4-1BB residues 24–186 I132R, His–Avi, sequence (Q07011 24-186 I132R): as the sequence (Q07011 24-186) above, with I109R counted along it
human 4-1BB residues 24–186 M101R, His–Avi, sequence (Q07011 24-186 M101R): as the sequence (Q07011 24-186) above, with M78R counted along it

- koff [1]: 0.0095 s⁻¹
- koff [2]: 0.012 s⁻¹
- koff [3]: 0.014 s⁻¹
B1: urelumab (fully human IgG4 mAb) (antibody, V domains shown)
VH: QVQLQQWGAGLLKPSETLSLTCAVYGGSFSGYYWSWIRQSPEKGLEWIGEINHGGYVTYNPSLESRVTISVDTSKNQFSLKLSSVTAADTAVYYCARDYGPGNYDWYFDLWGRGTLVTVSS
VL: EIVLTQSPATLSLSPGERATLSCRASQSVSSYLAWYQQKPGQAPRLLIYDASNRATGIPARFSGSGSGTDFTLTISSLEPEDFAVYYCQQRSNWPPALTFGGGTKVEIK
